Measured values reported in paper PMC5753033.

How the values were obtained:
[1] = biological target: T1, Mouse profilin 2a, Q9JJV2; experiment: sedimentation equilibrium analytical ultracentrifugation; details: chain shown with the change
T1 chain: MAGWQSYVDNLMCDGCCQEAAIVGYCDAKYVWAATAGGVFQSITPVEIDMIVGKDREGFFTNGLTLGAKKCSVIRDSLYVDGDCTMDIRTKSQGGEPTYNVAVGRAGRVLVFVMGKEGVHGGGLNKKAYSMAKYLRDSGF

Human profilin 1, P07737 = experiment: as above; details: chain shown with the change; modeled as a 1:1 interaction
[2] = two-site, independent binding model with one site fixed to the measured non-specific affinity

B1: WAVE1 (P): human WAVE1 [277–488], wild-type proline-rich domain, Q92558 P279G; P280S; P281G; P282S; P325G; P326S; P327G; P328S; P369G; P370S; P371G; P372S; … (protein)
chain: MPLVKRNIDPRHLCHTALPRGIKNELECVTNISLANIIRQLSSLSKYAEDIFGELFNEAHSFSFRVNSLQERVDRLSVSVTQLDPKEEELSLQDITMRKAFRSSTIQDQQLFDRKTLPIPLQETYDVCEQPPPLNILTPYRDDGKEGLKFYTNPSYFFDLWKEKMLQDTEDKRKEKRKQKQKNLDRPHEPEKVPRAPHDRRREWQKLAQGPELAEDDANLLHKHIEVANGPASHFETRPQTYVDHMDGSYSLSALPFSQMSELLTRAEERVLVRPHEPGSGSPMHGAGDAKPIPTCISSATGLIENRPQSPATGRTPVFVSPTPGSGSPPLPSALSTSSLRASMTSTPPPPVPPPPPPPATALQAPAVGSGSAPLQIAPGVLHPAGSGIAGSLVQPSPPVARAAPVCETVPVHPLPQGEVQGLPPGSGSPPLGSGGIRPSSPVTVTALAHPPSGLHPTPSTAPGPHVPLMPPSPPSQVIPASEPKRHPSTLPVISDARSVLLEAIRKGIQLRKVEEQREQEAKHERIENDVATILSRRIAVEYSDSEDDSEFDEVDWLE
Kd [1, 2]: 12 µM

B2: WAVE1 (P): human WAVE1 [277–488], wild-type proline-rich domain, Q92558 P279G; P280S; P281G; P282S; P348G; P349S; P350G; P351S; P354G; P355S; P356G; P357S; … (protein)
chain: MPLVKRNIDPRHLCHTALPRGIKNELECVTNISLANIIRQLSSLSKYAEDIFGELFNEAHSFSFRVNSLQERVDRLSVSVTQLDPKEEELSLQDITMRKAFRSSTIQDQQLFDRKTLPIPLQETYDVCEQPPPLNILTPYRDDGKEGLKFYTNPSYFFDLWKEKMLQDTEDKRKEKRKQKQKNLDRPHEPEKVPRAPHDRRREWQKLAQGPELAEDDANLLHKHIEVANGPASHFETRPQTYVDHMDGSYSLSALPFSQMSELLTRAEERVLVRPHEPGSGSPMHGAGDAKPIPTCISSATGLIENRPQSPATGRTPVFVSPTPPPPPPPLPSALSTSSLRASMTSTGSGSVPGSGSPPATALQAPAVGSGSAPLQIAPGVLHPAGSGIAGSLVQPSPPVARAAPVCETVPVHPLPQGEVQGLPPGSGSPPLGSGGIRPSSPVTVTALAHPPSGLHPTPSTAPGPHVPLMPPSPPSQVIPASEPKRHPSTLPVISDARSVLLEAIRKGIQLRKVEEQREQEAKHERIENDVATILSRRIAVEYSDSEDDSEFDEVDWLE
Kd ([1]; WAVE1 (PRD [B]) 15.5 µM, Pfn2 91.2, 44.8 and 21.7 µM, 7 K, 10 K, 14 K rpm, 2:1 binding model, Kd1 fit, Kd2 = 138 µM fixed): 2.07 µM

B3: WAVE1 (P): human WAVE1 [277–488], wild-type proline-rich domain, Q92558 P325G; P326S; P327G; P328S; P348G; P349S; P350G; P351S; P354G; P355S; P356G; P357S; … (protein)
chain: MPLVKRNIDPRHLCHTALPRGIKNELECVTNISLANIIRQLSSLSKYAEDIFGELFNEAHSFSFRVNSLQERVDRLSVSVTQLDPKEEELSLQDITMRKAFRSSTIQDQQLFDRKTLPIPLQETYDVCEQPPPLNILTPYRDDGKEGLKFYTNPSYFFDLWKEKMLQDTEDKRKEKRKQKQKNLDRPHEPEKVPRAPHDRRREWQKLAQGPELAEDDANLLHKHIEVANGPASHFETRPQTYVDHMDGSYSLSALPFSQMSELLTRAEERVLVRPHEPPPPPPMHGAGDAKPIPTCISSATGLIENRPQSPATGRTPVFVSPTPGSGSPPLPSALSTSSLRASMTSTGSGSVPGSGSPPATALQAPAVGSGSAPLQIAPGVLHPAGSGIAGSLVQPSPPVARAAPVCETVPVHPLPQGEVQGLPPGSGSPPLGSGGIRPSSPVTVTALAHPPSGLHPTPSTAPGPHVPLMPPSPPSQVIPASEPKRHPSTLPVISDARSVLLEAIRKGIQLRKVEEQREQEAKHERIENDVATILSRRIAVEYSDSEDDSEFDEVDWLE
Kd [1, 2]: 51 µM

B4: WAVE1 (P): human WAVE1 [277–488], wild-type proline-rich domain, Q92558 P279G; P280S; P281G; P282S; P325G; P326S; P327G; P328S; P348G; P349S; P350G; P351S; … (protein)
chain: MPLVKRNIDPRHLCHTALPRGIKNELECVTNISLANIIRQLSSLSKYAEDIFGELFNEAHSFSFRVNSLQERVDRLSVSVTQLDPKEEELSLQDITMRKAFRSSTIQDQQLFDRKTLPIPLQETYDVCEQPPPLNILTPYRDDGKEGLKFYTNPSYFFDLWKEKMLQDTEDKRKEKRKQKQKNLDRPHEPEKVPRAPHDRRREWQKLAQGPELAEDDANLLHKHIEVANGPASHFETRPQTYVDHMDGSYSLSALPFSQMSELLTRAEERVLVRPHEPGSGSPMHGAGDAKPIPTCISSATGLIENRPQSPATGRTPVFVSPTPGSGSPPLPSALSTSSLRASMTSTGSGSVPGSGSPPATALQAPAVGSGSAPLQIAPGVLHPAGSGIAGSLVQPSPPVARAAPVCETVPVHPLPQGEVQGLPPGSGSPPLGSGGIRPSSPVTVTALAHPPSGLHPTPSTAPGPHVPLMPPSPPSQVIPASEPKRHPSTLPVISDARSVLLEAIRKGIQLRKVEEQREQEAKHERIENDVATILSRRIAVEYSDSEDDSEFDEVDWLE
Kd (Human profilin 1, P07737): 813 µM | Kd ([1]; modeled as a 1:1 interaction): 138 µM

B5: WAVE1 (P): human WAVE1 [277–488], wild-type proline-rich domain, Q92558 P279G; P280S; P281G; P282S; P325G; P326S; P327G; P328S; P348G; P349S; P350G; P351S; … (protein)
chain: MPLVKRNIDPRHLCHTALPRGIKNELECVTNISLANIIRQLSSLSKYAEDIFGELFNEAHSFSFRVNSLQERVDRLSVSVTQLDPKEEELSLQDITMRKAFRSSTIQDQQLFDRKTLPIPLQETYDVCEQPPPLNILTPYRDDGKEGLKFYTNPSYFFDLWKEKMLQDTEDKRKEKRKQKQKNLDRPHEPEKVPRAPHDRRREWQKLAQGPELAEDDANLLHKHIEVANGPASHFETRPQTYVDHMDGSYSLSALPFSQMSELLTRAEERVLVRPHEPGSGSPMHGAGDAKPIPTCISSATGLIENRPQSPATGRTPVFVSPTPGSGSPPLPSALSTSSLRASMTSTGSGSVPGSGSPPATALQAPAVPPPPAPLQIAPGVLHPAGSGIAGSLVQPSPPVARAAPVCETVPVHPLPQGEVQGLPPGSGSPPLGSGGIRPSSPVTVTALAHPPSGLHPTPSTAPGPHVPLMPPSPPSQVIPASEPKRHPSTLPVISDARSVLLEAIRKGIQLRKVEEQREQEAKHERIENDVATILSRRIAVEYSDSEDDSEFDEVDWLE
Kd [1, 2]: 145 µM

B6: WAVE1 (P): human WAVE1 [277–488], wild-type proline-rich domain, Q92558 P279G; P280S; P281G; P282S; P325G; P326S; P327G; P328S; P348G; P349S; P350G; P351S; … (protein)
chain: MPLVKRNIDPRHLCHTALPRGIKNELECVTNISLANIIRQLSSLSKYAEDIFGELFNEAHSFSFRVNSLQERVDRLSVSVTQLDPKEEELSLQDITMRKAFRSSTIQDQQLFDRKTLPIPLQETYDVCEQPPPLNILTPYRDDGKEGLKFYTNPSYFFDLWKEKMLQDTEDKRKEKRKQKQKNLDRPHEPEKVPRAPHDRRREWQKLAQGPELAEDDANLLHKHIEVANGPASHFETRPQTYVDHMDGSYSLSALPFSQMSELLTRAEERVLVRPHEPGSGSPMHGAGDAKPIPTCISSATGLIENRPQSPATGRTPVFVSPTPGSGSPPLPSALSTSSLRASMTSTGSGSVPGSGSPPATALQAPAVGSGSAPLQIAPGVLHPAPPPIAPPLVQPSPPVARAAPVCETVPVHPLPQGEVQGLPPGSGSPPLGSGGIRPSSPVTVTALAHPPSGLHPTPSTAPGPHVPLMPPSPPSQVIPASEPKRHPSTLPVISDARSVLLEAIRKGIQLRKVEEQREQEAKHERIENDVATILSRRIAVEYSDSEDDSEFDEVDWLE
Kd [1, 2]: 182 µM
